The nature of the data set: self-splicing fitness, log relative to wild type (ln ratio); higher = more splicing; Tetrahymena group I intron in knt gene, E. coli kanamycin selection, DiMSum; sequences stand for … in CUCUCU…GGAGGGAAAAGUUAUCAGGCAUGCACCUGGUAGCUAGUCUUUAAACCAAUAGAUUGCAUCGGUUUAAAAGGCAAGACCGUCAAAUUGCGGGAAAGGGGUCAACAGCCGUUCAGUACCAAGUCUCAGGGGAAACUUUGAGAUGGCCUUGCAAAGGGUAUGGUAAUAAGCUGACGGACAUGGUCCUAACCACGCAGCCAAGUCCUAAGUCAACAGAUCUUCUGUUGAUAUGGAUGCAGUUCACAGACUAAAUGUCGGUCGGGGAAGAUGUAUUCUUCUCAUAAGAUAUAGUCGGACCUCUCCUUAAUGGGAGCUAGCGGAUGAAGUGAUGCAACACUGGAGCCGCUGGGAACUAAUUUGUAUGCGAAAGUAUAUUGAUUAGUUUUGGAGUACUCGUGGUCG
Summed up:
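Library with all eight P1ex-region intron nucleotides randomised, intron inside the knt kanamycin-resistance gene on pET-22b(+), in E. coli BL21(DE3). Cells grew overnight at 37°C or 30°C on LB agar with or without 25 μg/mL kanamycin (plus 100 μg/mL carbenicillin, 50 μM IPTG, 0.2% rhamnose), in six replicate transformations. Pooled colonies were amplicon-sequenced on Illumina HiSeq 2500. DiMSum fitness is the error-weighted combination of wild-type-normalised replicate fold changes, kanamycin versus none.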

± gives the uncertainty stated by the source.

For the sequence CUUCAGCAAUAUUACGAAUC, the “self-splicing fitness (ln)” value was -1.04 ± 0.2 (30 °C) and -1.06 ± 0.19 (37 °C). For GAACAGCAAUAUUACGUGAG, in that order: -0.394 ± 0.031 and -0.235 ± 0.053.

Take GUCAAGCAAUAUUACGCUUC: the “self-splicing fitness (ln)” value reads like this: (30 °C) -4.61 ± 0.42; (37 °C) -2.4 ± 0.25.

On to UAAGAGCAAUAUUACGCGAG, for which the “self-splicing fitness (ln)” value is -3.96 ± 0.21 (30 °C) and -1.85 ± 0.17 (37 °C). In the same order, the values of ACUGAGCAAUAUUACGCAGG are -3.15 ± 0.23 and -1.14 ± 0.13. Take GGAAAGCAAUAUUACGAUCA: the “self-splicing fitness (ln)” value by setting is: (30 °C) 0.0514 ± 0.081; (37 °C) -0.282 ± 0.099. For the sequence AUCUAGCAAUAUUACGUGCA, the “self-splicing fitness (ln)” value (30 °C) was -0.394 ± 0.15 and the “self-splicing fitness (ln)” value (37 °C) is -0.423 ± 0.18. In the same order, the values of CUGGAGCAAUAUUACGAGAU are -4.02 ± 0.39 and -2.49 ± 0.44. For GUAGAGCAAUAUUACGAAAU, in that order: -1 ± 0.15 and -1.21 ± 0.17.

Regarding CUGCAGCAAUAUUACGCCGC, the “self-splicing fitness (ln)” value (37 °C) was -2.23 ± 0.45.

Consider ACCUAGCAAUAUUACGUCCG, for which the “self-splicing fitness (ln)” value reads like this: (30 °C) -2.21 ± 0.14; (37 °C) -0.377 ± 0.19. In the same order, the values of AAGGAGCAAUAUUACGGCGC are -2 ± 0.27 and -2.34 ± 0.48. For AGGCAGCAAUAUUACGACGU, in that order: -0.0258 ± 0.11 and 0.539 ± 0.087.

On to CUCAAGCAAUAUUACGCCCU, for which the “self-splicing fitness (ln)” value by setting is: (30 °C) -3.13 ± 0.44; (37 °C) -1.36 ± 0.36.

Turning to UAAAAGCAAUAUUACGAAUA, the “self-splicing fitness (ln)” value runs as follows: (30 °C) -0.61 ± 0.11; (37 °C) -0.627 ± 0.11. For the sequence CGCGAGCAAUAUUACGGUAU, the “self-splicing fitness (ln)” value reads like this: (30 °C) -3.65 ± 0.34; (37 °C) -2.81 ± 0.34. With UCAAAGCAAUAUUACGUGGA, the “self-splicing fitness (ln)” value was -1.49 ± 0.1 (30 °C) and -1.6 ± 0.11 (37 °C). For CGGAAGCAAUAUUACGUUGU, in that order: -3.82 ± 0.22 and -2.88 ± 0.24. For AUAGAGCAAUAUUACGAACU, in that order: -0.774 ± 0.13 and 0.227 ± 0.18.

Take GAGUAGCAAUAUUACGACGA: the “self-splicing fitness (ln)” value was -0.0886 ± 0.15 (30 °C) and -0.664 ± 0.12 (37 °C).

In the case of GUGUAGCAAUAUUACGGAUU, the “self-splicing fitness (ln)” value runs as follows: (30 °C) -2.13 ± 0.087; (37 °C) -1.16 ± 0.11. For CGCUAGCAAUAUUACGGGGU, in that order: -3.83 ± 0.21 and -3.12 ± 0.21. For AGGAAGCAAUAUUACGGUCG, the “self-splicing fitness (ln)” value runs as follows: (30 °C) -0.601 ± 0.1; (37 °C) 0.213 ± 0.14. For GUUGAGCAAUAUUACGGAGC, in that order: -1.01 ± 0.2 and -2.82 ± 0.3.

Regarding AAUCAGCAAUAUUACGGUCC, the “self-splicing fitness (ln)” value is, setting by setting: (30 °C) -0.242 ± 0.085; (37 °C) -0.118 ± 0.1. In the same order, the values of CGGCAGCAAUAUUACGAACG are -1.11 ± 0.11 and 0.693 ± 0.15.

For AGCGAGCAAUAUUACGCCAU, the “self-splicing fitness (ln)” value is -4.12 ± 0.46 (30 °C) and -1.58 ± 0.18 (37 °C). For AGCGAGCAAUAUUACGUACC, in that order: -0.987 ± 0.18 and -0.589 ± 0.19. On to GACGAGCAAUAUUACGGGUA, for which the “self-splicing fitness (ln)” value by setting is: (30 °C) -3.66 ± 0.2; (37 °C) -2.94 ± 0.2. For UAAUAGCAAUAUUACGACAA, in that order: -2.23 ± 0.16 and -1.01 ± 0.14. In the same order, the values of AUUAAGCAAUAUUACGGAGU are -1.69 ± 0.14 and -0.962 ± 0.15.

For UCAGAGCAAUAUUACGGUAU, the “self-splicing fitness (ln)” value was -2.79 ± 0.2 (30 °C) and -3.2 ± 0.44 (37 °C). In the same order, the values of ACGGAGCAAUAUUACGCACU are -3.4 ± 0.34 and -1.32 ± 0.23. Take CAAGAGCAAUAUUACGGGGA: the “self-splicing fitness (ln)” value runs as follows: (30 °C) -3.21 ± 0.32; (37 °C) -2.67 ± 0.28. For UUAAAGCAAUAUUACGUAGA, the “self-splicing fitness (ln)” value was -1.55 ± 0.099 (30 °C) and -0.654 ± 0.12 (37 °C). For CUAAAGCAAUAUUACGAUCA, in that order: -2.12 ± 0.18 and -0.711 ± 0.22.

In the case of ACCCAGCAAUAUUACGUCUC, the “self-splicing fitness (ln)” value by setting is: (30 °C) -1.89 ± 0.078; (37 °C) -0.796 ± 0.094.
